Measured values as given in publication PMC7144582.

How the values were obtained:
[1] = biological target: CHIKV nsP3 hypervariable domain (HVD), aa 325-523, with C-terminal Twin-Strep-tag (chikungunya virus (CHIKV) strain 181-25); assay: NMR titration
[2] = biological target: nsP3 Site 1 (Chikungunya virus), Q8JUX6; assay: NMR

Which apparent KD, Site 2 [1] does the source give for CD2AP SH3-A domain (domain or fragment) here?
The apparent KD, Site 2 was 137 µM.

CD2AP SH3-B domain (domain or fragment) was tested. Which KD, Site 1 [1] did it give?
Its KD, Site 1 is 4.5 µM.

And the apparent KD, Site 2 [1]?
Its apparent KD, Site 2 is 75.7 µM.

How did the apparent KD, Site 2 [1] turn out when CD2AP SH3-C domain (domain or fragment) was run?
The apparent KD, Site 2 was 154 µM.

B1: CD2AP SH3-C, Q9Y5K6 (protein)
chain: KAKEYCRTLFAYEGTNEDELTFKEGEIIHLISKETGEAGWWRGELNGKEGVFPDNFAVQINE
Which Kd [2] does the source give for B1 here?
Its Kd is 51.7 µM.

B2: CD2AP SH3-B, Q9Y5K6 (protein)
chain: TKKRQCKVLFEYIPQNEDELELKVGDIIDINEEVEEGWWSGTLNNKLGLFPSNFVKELEV
Which Kd [2] does the source give for B2 here?
The Kd was 4.5 µM.
